Tested on: NC(=O)c1ccc[n+]([C@@H]2O[C@H](COP(=O)([O-])OP(=O)(O)OC[C@H]3O[C@@H](n4cnc5c(N)ncnc54)[C@H](O)[C@@H]3O)[C@@H](O)[C@H]2O)c1
Test: purified protein
Assay type: biochemical, Homo sapiens

Q: With CD38 (Homo sapiens) as the substance, how does the Km read?
A: 17 ± 6 µM
